Experiment in all cases: cell-based or functional assay
Experiment [1] deals with OPRM1-PK (opiod receptor mu-1 fused to PK) (E. coli) (UniProt P35372). More on the design: EC50, arrestin-EA recruitment to OPRM1-PK (EFC) (M (unit not given)): unit not given beside the values.
For experiment [2], the target named is OPRD1 (opiod receptor delta 1), not fused (UniProt P41143).
Experiment [3] addresses CRTH2-PK2 (G Protein-coupled receptor 44 fused to PK2) (E. coli) (UniProt Q9Y5Y4). More on the design: EC50 of prostaglandin for arrestin-EA recruitment, EFC (M (unit not given)): unit not given beside the values.
The target of experiment [4] is OPRM1-PK (opiod receptor mu-1 fused to PK) (E. coli) (UniProt P35372). More on the design: EC50, arrestin-EA recruitment to OPRM1-PK (EFC), cells headed 'OPRM1 + PRC' (M (unit not given)): unit not given beside the values.
Experiment [5] has as its target CHRM2-PK2 (cholinergic receptor, muscarinic 2, fused to PK2) (E. coli) (UniProt P08172).
Experiment [6] deals with SSTR1-PK2 (somatostatin receptor 1 fused to PK2) (E. coli) (UniProt P30872).
The target in experiment [7] is OPRD1-PK fusion protein. More on the design: EC50, arrestin-EA recruitment to OPRD1-PK (EFC) (M (unit not given)): unit not given beside the values.
In experiment [8] the target is CCR4-PK1 (chemokine receptor 4 fused to PK1) (E. coli) (UniProt P51679).
Experiment [9] deals with CHRM2-PK2 (cholinergic receptor, muscarinic 2, fused to PK2) (E. coli) (UniProt P08172). The source holds these as a separate data set.
Experiment [10] addresses CRHR2-PK1 (corticotropin releasing hormone receptor 2 fused to PK1) (E. coli) (UniProt Q13324).
Experiment [11] has as its target MC3R-PK1 (melanocortin 3 receptor fused to PK1) (E. coli) (UniProt P41968).
The target in experiment [12] is CHRM2-PK1 (cholinergic receptor, muscarinic 2, fused to PK1) (E. coli) (UniProt P08172).
Experiment [13] addresses OPRM1-PK (opiod receptor mu-1 fused to PK) (E. coli) (UniProt P35372).
Experiment [14] addresses CRTH2-PK1 (G Protein-coupled receptor 44 fused to PK1) (E. coli) (UniProt Q9Y5Y4).
The target in experiment [15] is SSTR1-PK2 (somatostatin receptor 1 fused to PK2) (E. coli) (UniProt P30872). The source holds these as a separate data set.
Experiment [16] concerns the target SSTR4-PK without the EGS linker (UniProt P31391).
Experiment [17] has as its target HRH3 with the EGS linker and PK (UniProt Q9Y5N1).
Experiment [18] deals with SSTR4 with the EGS linker and PK (UniProt P31391).
The target in experiment [19] is OPRM1-PK2 (opiod receptor mu-1 fused to PK2) (E. coli) (UniProt P35372).
Experiment [20] addresses OPRD1-PK fusion protein.
The target in experiment [21] is CCR4-PK2 (chemokine receptor 4 fused to PK2) (E. coli) (UniProt P51679).
The target of experiment [22] is CRTH2-PK2 (G Protein-coupled receptor 44 fused to PK2) (E. coli) (UniProt Q9Y5Y4).
Experiment [23] has as its target CRHR2-PK2 (corticotropin releasing hormone receptor 2 fused to PK2) (E. coli) (UniProt Q13324).
The target of experiment [24] is MC3R-PK2 (melanocortin 3 receptor fused to PK2) (E. coli) (UniProt P41968).
The target in experiment [25] is CHRM3 with the EGS linker and PK (UniProt P20309).
Experiment [26] has as its target CHRM2-PK2 (cholinergic receptor, muscarinic 2, fused to PK2) (E. coli) (UniProt P08172). More on the design: EC50 of oxotremorine for arrestin-EA recruitment, EFC (M (unit not given)): unit not given beside the values.
Another experiment deals with PROKR2, not fused (UniProt Q8NFJ6). Also noted: EC50, arrestin-EA recruitment to OPRM1-PK (EFC), cells headed 'OPRM1 + PRC' (M (unit not given)): unit not given beside the values.

These results are taken from US20100120063A1, “GPCR Arrestin Assays” (DISCOVERX CORPORATION, priority 2008, published 2010).

Where two headings read alike, the source gives them in different places.

Chain of HRH3 with the EGS linker and PK (Q9Y5N1 other isoform, or with tags, fused parts or gaps): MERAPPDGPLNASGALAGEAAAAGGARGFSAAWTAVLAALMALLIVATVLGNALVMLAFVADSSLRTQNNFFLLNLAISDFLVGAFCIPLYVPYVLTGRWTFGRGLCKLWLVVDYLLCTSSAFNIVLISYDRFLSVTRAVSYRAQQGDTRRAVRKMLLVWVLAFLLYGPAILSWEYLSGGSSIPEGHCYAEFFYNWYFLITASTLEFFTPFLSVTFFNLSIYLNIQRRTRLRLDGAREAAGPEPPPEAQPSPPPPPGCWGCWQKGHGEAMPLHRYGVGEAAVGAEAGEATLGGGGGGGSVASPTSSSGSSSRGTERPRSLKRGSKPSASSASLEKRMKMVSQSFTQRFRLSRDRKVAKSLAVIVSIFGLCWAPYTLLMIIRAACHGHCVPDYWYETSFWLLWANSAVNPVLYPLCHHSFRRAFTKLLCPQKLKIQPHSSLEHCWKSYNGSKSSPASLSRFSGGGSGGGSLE
Chain of SSTR4 with the EGS linker and PK (P31391 other isoform, or with tags, fused parts or gaps): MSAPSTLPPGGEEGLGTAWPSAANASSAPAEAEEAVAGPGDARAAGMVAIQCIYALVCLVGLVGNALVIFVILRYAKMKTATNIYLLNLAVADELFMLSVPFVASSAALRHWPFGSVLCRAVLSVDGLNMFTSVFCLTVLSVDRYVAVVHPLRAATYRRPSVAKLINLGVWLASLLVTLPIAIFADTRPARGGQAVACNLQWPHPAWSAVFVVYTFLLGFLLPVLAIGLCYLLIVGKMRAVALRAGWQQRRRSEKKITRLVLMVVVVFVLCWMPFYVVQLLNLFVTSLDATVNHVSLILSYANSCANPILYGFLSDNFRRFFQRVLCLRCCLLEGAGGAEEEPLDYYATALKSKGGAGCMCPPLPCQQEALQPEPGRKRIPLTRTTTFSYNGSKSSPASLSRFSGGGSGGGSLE
Chain of PROKR2, not fused (Q8NFJ6 whole entry, the tested form may be a part): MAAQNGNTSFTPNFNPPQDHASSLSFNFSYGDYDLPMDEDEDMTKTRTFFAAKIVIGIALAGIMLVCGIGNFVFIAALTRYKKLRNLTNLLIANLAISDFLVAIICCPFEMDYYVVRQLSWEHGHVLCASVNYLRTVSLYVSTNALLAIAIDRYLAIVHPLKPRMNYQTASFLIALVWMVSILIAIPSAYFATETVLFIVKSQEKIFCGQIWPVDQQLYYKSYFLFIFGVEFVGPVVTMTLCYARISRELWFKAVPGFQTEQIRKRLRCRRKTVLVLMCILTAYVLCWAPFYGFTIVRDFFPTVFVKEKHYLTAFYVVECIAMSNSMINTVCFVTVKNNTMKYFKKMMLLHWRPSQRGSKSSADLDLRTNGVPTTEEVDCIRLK
Chain of SSTR4-PK without the EGS linker (P31391 other isoform, or with tags, fused parts or gaps): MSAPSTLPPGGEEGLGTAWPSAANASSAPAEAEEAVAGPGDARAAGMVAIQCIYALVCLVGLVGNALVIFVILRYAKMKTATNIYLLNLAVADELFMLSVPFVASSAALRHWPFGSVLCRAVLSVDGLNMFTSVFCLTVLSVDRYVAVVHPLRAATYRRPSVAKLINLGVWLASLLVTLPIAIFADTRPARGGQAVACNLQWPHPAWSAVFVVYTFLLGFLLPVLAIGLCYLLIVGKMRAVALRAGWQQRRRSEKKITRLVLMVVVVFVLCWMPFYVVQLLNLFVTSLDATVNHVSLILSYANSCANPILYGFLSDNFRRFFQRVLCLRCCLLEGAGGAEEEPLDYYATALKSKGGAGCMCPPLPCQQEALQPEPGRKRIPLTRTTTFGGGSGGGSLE

Regarding DADLE (peptide; in M (unit assumed)), the EC50, arrestin-EA recruitment to OPRM1-PK (EFC) (M (unit not given)) in experiment [1] was 1.11e-07.

For deltorphin (peptide), in experiment [2], the EC50, arrestin-EA recruitment to co-expressed OPRM1-PK (EFC, transactivation) is 8.38 nM and the LOGEC50, arrestin-EA recruitment to co-expressed OPRM1-PK (EFC, transactivation) (log M (unit not given)) is -8.08. In addition, in [1], the EC50, arrestin-EA recruitment to OPRM1-PK (EFC) (M (unit not given)) turned out to be 0.0007 and the LOGEC50, arrestin-EA recruitment to OPRM1-PK (EFC) (log M (unit not given)) is -3.12.

Substance “arrestin-EA fusion protein (beta arrestin fused at its C terminus to the EA fragment of β-galactosidase) (from UniProt P49407 1-418; P00722 48-1024) (other; in M (unit assumed))” gave an EC50 of prostaglandin for arrestin-EA recruitment, EFC (M (unit not given)) in experiment [3] of 1.74e-07.

Consider “arrestin-EA fusion protein (beta arrestin fused at its C terminus to the EA fragment of β-galactosidase) (from UniProt P49407 1-418; P00722 48-1024)”, for which, in experiment [4], the BOTTOM of the EG-VEGF dose-response fit, EFC chemiluminescence, cells headed 'OPRM1 + PRC' is 25.8 and the TOP of the EG-VEGF dose-response fit, EFC chemiluminescence, cells headed 'OPRM1 + PRC' amounted to 57.3. Further, the EC50 of oxotremorine for arrestin-EA recruitment, EFC in experiment [5] is 6290 nM. In [6], the BOTTOM of the agonist dose-response fit, EFC chemiluminescence is 4790 and the Log EC50 of the agonist (not named) for arrestin-EA recruitment, EFC (log M (unit not given)) was -8.07. In addition, in the experiment with OPRD1-PK fusion protein [7], the BOTTOM of the OPRM1-agonist dose-response fit, EFC chemiluminescence, CHO cells with OPRD1-PK worked out at 520 and the TOP of the OPRM1-agonist dose-response fit, EFC chemiluminescence, CHO cells with OPRD1-PK turned out to be 2810. This substance came in with a S:B, EFC chemiluminescence in experiment [8] of 19. In experiment [9], this substance came in with a S:B, EFC chemiluminescence of 6.1. In [10], this substance registered a S:B, EFC chemiluminescence of 13. In addition, the S:B, EFC chemiluminescence in experiment [11] stood at 1. The same substance gave a S:B, EFC chemiluminescence in [12] of 1.6. Besides, in [13], the BOTTOM of the OPRM1-agonist dose-response fit, EFC chemiluminescence, U2OS cells with OPRM1-PK was 1010; the S:B with deltorphin, EFC chemiluminescence, U2OS cells with OPRM1-PK and OPRD1 amounted to 7.4; the S:B, EFC chemiluminescence stood at 26; the TOP of the OPRM1-agonist dose-response fit, EFC chemiluminescence, U2OS cells with OPRM1-PK came out at 10900. Further, the S:B, EFC chemiluminescence in experiment [14] was determined as 1. For the same substance, in experiment [15], the BOTTOM of the agonist dose-response fit, EFC chemiluminescence was found to be 4800; the EC50 of the agonist (not named) for arrestin-EA recruitment, EFC amounted to 8.15 nM; the LOGEC50 of the agonist (not named) for arrestin-EA recruitment, EFC (log M (unit not given)) was -8.09; the TOP of the agonist dose-response fit, EFC chemiluminescence was determined as 10500. In experiment [16], this substance had a response in the EFC arrestin assay, CHO cells of 1.5 fold. In addition, in [17], the BOTTOM of the agonist dose-response fit, EFC chemiluminescence amounted to 273; the EC50 of the agonist (not named) for arrestin-EA recruitment, EFC is 55.2 nM; the LOGEC50 of the agonist (not named) for arrestin-EA recruitment, EFC (log M (unit not given)) was -7.26; the TOP of the agonist dose-response fit, EFC chemiluminescence was 935. Also, in experiment [18], the BOTTOM of the agonist dose-response fit, EFC chemiluminescence was found to be 1380; the EC50 of the agonist (not named) for arrestin-EA recruitment, EFC came to 0.732 nM; the LOGEC50 of the agonist (not named) for arrestin-EA recruitment, EFC (log M (unit not given)) was -9.14; the TOP of the agonist dose-response fit, EFC chemiluminescence came out at 3420. Also, in experiment [19], the S:B, EFC chemiluminescence was determined as 8. Further, in the experiment with OPRD1-PK fusion protein [20], the BOTTOM of the OPRM1-agonist dose-response fit, EFC chemiluminescence, CHO cells with OPRD1-PK and OPRM1 is 20.3; the S:B, EFC chemiluminescence, CHO cells with OPRD1-PK and OPRM1 is 31.9; the TOP of the OPRM1-agonist dose-response fit, EFC chemiluminescence, CHO cells with OPRD1-PK and OPRM1 is 201. In experiment [21], this substance returned a S:B, EFC chemiluminescence of 3. In experiment [22], this substance registered a S:B, EFC chemiluminescence of 2.6. In experiment [23], this substance yielded a S:B, EFC chemiluminescence of 17. Further, in [24], the S:B, EFC chemiluminescence came to 3.2. Also, in [25], the BOTTOM of the agonist dose-response fit, EFC chemiluminescence worked out at 546; the EC50 of the agonist (not named) for arrestin-EA recruitment, EFC was 82.2 nM; the LOGEC50 of the agonist (not named) for arrestin-EA recruitment, EFC (log M (unit not given)) was -7.08; the TOP of the agonist dose-response fit, EFC chemiluminescence worked out at 1550. Further, in [3], the BOTTOM of the agonist dose-response fit, EFC chemiluminescence was 29200; the LOGEC50 of prostaglandin for arrestin-EA recruitment, EFC (log M (unit not given)) was -6.76; the TOP of the agonist dose-response fit, EFC chemiluminescence worked out at 76000. In [1], this substance showed a BOTTOM of the DADLE dose-response fit, EFC chemiluminescence, U2OS cells with OPRM1-PK of 626; a S:B with DADLE, EFC chemiluminescence, U2OS cells with OPRM1-PK of 32.7; a S:B with deltorphin, EFC chemiluminescence, U2OS cells with OPRM1-PK only of 2.5; a TOP of the DADLE dose-response fit, EFC chemiluminescence, U2OS cells with OPRM1-PK of 17100. In experiment [26], the BOTTOM of the agonist dose-response fit, EFC chemiluminescence is 336; the EC50 of oxotremorine for arrestin-EA recruitment, EFC (M (unit not given)) is 6.29e-05; the LOGEC50 of oxotremorine for arrestin-EA recruitment, EFC (log M (unit not given)) was -5.2; the TOP of the agonist dose-response fit, EFC chemiluminescence was found to be 2040.

As for DADLE (peptide), the LOGEC50, arrestin-EA recruitment to OPRM1-PK (EFC) (log M (unit not given)) in [1] is -6.95.

For “EG-VEGF (from UniProt P58294 20-105) (ligand)”, in the experiment with PROKR2, not fused, the EC50, arrestin-EA recruitment to OPRM1-PK (EFC), cells headed 'OPRM1 + PRC' (M (unit not given)) came to 3.21e-08 and the LOGEC50, arrestin-EA recruitment to OPRM1-PK (EFC), cells headed 'OPRM1 + PRC' (log M (unit not given)) is -7.49.

Consider “DAMAGO, [D-Ala2,N-Me-Phe4,Gly5-ol]-enkephalin (peptide)”, for which, in the experiment with OPRD1-PK fusion protein [7], the EC50, arrestin-EA recruitment to OPRD1-PK (EFC) (M (unit not given)) is 3.64e-05 and the LOGEC50, arrestin-EA recruitment to OPRD1-PK (EFC) (log M (unit not given)) was -4.44.
